Measured values: article PMC8152684

Substrate: NC(=O)C[C@H](N)C(=O)O
Assay: purified protein
Conditions: free enzyme in solution, 50 mM Tris-HCl pH 8.6, 37 °C

B1: L-asparaginase (Asp) (Escherichia coli K-12) (protein)
chain: LPNITILATGGTIAGGGDSATKSNYTVGKVGVENLVNAVPQLKDIANVKGEQVVNIGSQDMNDNVWLTLAKKINTDCDKTDGFVITHGTDTMEETAYFLDLTVKCDKPVVMVGAMRPSTSMSADGPFNLYNAVVTAADKASANRGVLVVMNDTVLDGRDVTKTNTTDVATFKSVNYGPLGYIHNGKIDYQRTPARKHTSDTPFDVSKLNELPKVGIVYNYANASDLPAKALVDAGYDGIVSAGVGNGNLYKSVFDTLATAAKTGTAVVRSSRVPTGATTQDAEVDDAKYGFVASGTLNPQKARVLLQLALTQTKDPQQIQQIFNQY
  Km: 140 µM
